The target of the assay is recombinant Fasciola hepatica enolase (rFhENO) (Fasciola hepatica) (UniProt Q27655). As to the kind of experiment: SEC; Superdex 75 10/300 GL, 0.4 mL/min, 100 μg rFhENO injected; markers carbonic anhydrase 29 kDa, BSA 66 kDa, alcohol dehydrogenase 150 kDa; dimer to monomers.

One may read the stoichiometry N as a count of units in the complex or per binding partner. “recombinant Fasciola hepatica enolase (rFhENO) (from UniProt Q27655 1-431) (enzyme)”: the percent of the protein eluting in the homodimeric form was found to be 86.5% and the stoichiometry N turned out to be 2.
